# Measured values as given in IntAct's records for PubMed 19141279.
# B1: Ras-related protein Rab-6A (Homo sapiens), P20340-1 (parent)
# chain: MSTGGDFGNPLRKFKLVFLGEQSVGKTSLITRFMYDSFDNTYQATIGIDFLSKTMYLEDRTVRLQLWDTAGQERFRSLIPSYIRDSTVAVVVYDITNVNSFQQTTKWIDDVRTERGSDVIIMLVGNKTDLADKRQVSIEEGERKAKELNVMFIETSAKAGYNVKQLFRRVAAALPGMESTQDRSREDMIDIKLEKPQEQPVSEGGCSC
# partner: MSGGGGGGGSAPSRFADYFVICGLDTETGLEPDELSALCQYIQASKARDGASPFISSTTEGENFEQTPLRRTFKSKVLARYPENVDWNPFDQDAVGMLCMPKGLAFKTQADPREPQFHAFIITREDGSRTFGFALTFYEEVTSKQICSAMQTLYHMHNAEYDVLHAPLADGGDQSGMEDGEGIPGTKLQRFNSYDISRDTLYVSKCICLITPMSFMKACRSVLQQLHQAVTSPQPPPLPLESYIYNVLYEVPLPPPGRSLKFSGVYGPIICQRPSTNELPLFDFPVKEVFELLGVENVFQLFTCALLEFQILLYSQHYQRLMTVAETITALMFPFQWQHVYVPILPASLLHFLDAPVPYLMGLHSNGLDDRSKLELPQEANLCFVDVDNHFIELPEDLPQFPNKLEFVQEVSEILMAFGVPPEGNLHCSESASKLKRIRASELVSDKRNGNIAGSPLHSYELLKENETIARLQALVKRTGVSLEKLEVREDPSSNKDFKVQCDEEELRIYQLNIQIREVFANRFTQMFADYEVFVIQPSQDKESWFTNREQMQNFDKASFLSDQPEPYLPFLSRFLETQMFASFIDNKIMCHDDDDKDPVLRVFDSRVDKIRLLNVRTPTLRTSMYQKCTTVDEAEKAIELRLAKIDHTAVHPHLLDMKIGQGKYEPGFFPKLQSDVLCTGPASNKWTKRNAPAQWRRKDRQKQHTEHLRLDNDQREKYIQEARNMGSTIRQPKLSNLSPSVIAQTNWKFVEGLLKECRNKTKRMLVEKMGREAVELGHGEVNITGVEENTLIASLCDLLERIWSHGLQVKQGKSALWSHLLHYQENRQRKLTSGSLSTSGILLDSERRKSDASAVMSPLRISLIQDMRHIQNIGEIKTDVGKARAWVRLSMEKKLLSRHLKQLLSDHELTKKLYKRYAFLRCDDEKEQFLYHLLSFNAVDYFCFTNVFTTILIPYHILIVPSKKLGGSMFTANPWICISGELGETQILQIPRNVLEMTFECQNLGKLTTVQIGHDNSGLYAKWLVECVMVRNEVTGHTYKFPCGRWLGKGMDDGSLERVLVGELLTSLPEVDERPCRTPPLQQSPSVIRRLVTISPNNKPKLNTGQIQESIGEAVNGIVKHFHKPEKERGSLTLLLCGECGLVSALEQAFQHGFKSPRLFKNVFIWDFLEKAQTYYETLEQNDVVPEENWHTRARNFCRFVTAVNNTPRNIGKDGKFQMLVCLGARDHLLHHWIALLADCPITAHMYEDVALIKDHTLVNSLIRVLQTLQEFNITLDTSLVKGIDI
# Variants of: B1
# Conditions: with den5a_mouse Dennd5a
row,Variant,effect of a mutation on the interaction
1,I46E,disrupting interaction
